Assay results published in US20170014486A1.

Molecular target: natriuretic polypeptide receptor A (Npra), mouse (mouse) (UniProt P18293)
Test: cell-based or functional assay

UniProt P18293, sequence (P18293 29-1057 limits assumed): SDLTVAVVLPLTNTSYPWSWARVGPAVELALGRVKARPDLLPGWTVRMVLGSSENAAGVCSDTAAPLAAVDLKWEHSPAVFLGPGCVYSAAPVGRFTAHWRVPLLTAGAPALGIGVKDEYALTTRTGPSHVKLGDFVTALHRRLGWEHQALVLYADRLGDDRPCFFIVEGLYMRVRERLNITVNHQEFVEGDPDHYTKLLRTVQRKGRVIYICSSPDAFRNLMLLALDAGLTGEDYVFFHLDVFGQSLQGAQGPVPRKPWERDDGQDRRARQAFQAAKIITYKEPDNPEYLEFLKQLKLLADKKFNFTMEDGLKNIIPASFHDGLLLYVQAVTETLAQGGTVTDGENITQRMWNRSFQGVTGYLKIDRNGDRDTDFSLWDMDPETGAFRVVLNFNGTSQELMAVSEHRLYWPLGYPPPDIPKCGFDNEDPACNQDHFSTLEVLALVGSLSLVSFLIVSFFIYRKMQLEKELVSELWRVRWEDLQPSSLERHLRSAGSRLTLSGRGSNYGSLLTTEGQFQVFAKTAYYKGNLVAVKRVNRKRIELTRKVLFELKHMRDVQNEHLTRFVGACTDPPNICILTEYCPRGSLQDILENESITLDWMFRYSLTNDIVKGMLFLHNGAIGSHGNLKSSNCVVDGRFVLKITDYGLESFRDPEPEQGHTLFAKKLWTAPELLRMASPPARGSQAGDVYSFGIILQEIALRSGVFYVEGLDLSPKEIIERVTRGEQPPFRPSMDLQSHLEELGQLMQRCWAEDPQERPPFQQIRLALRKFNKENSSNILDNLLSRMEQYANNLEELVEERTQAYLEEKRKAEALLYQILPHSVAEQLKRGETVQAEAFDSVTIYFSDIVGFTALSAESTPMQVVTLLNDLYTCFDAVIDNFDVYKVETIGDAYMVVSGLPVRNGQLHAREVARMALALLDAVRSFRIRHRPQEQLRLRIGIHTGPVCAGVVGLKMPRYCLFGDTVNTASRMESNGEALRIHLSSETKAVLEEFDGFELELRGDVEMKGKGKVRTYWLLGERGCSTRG

## Nppb-saporin conjugate
  Npra-positive spinal cord neurons eliminated after intrathecal injection (ISH cell counts): 70%
